From PMC10889842

Molecular target: StBIN2 (Brassinolide insensitive 2 of potato), fused to nLUC (Solanum tuberosum (potato))
Assay: split reporter (BiFC, NanoBiT); luciferase complementation in infiltrated tobacco leaves; LUC enzyme activity detected with a dual luciferase reporter assay kit (Vazyme); three biological repeats

Row | LUC enzyme activity, fold over the negative control [fold] | Substance
1 | > 5 | StSnRK2.2, fused to cLUC (natural protein)
2 | 5 | StCCJ9 (a homolog of peroxidase AtPER12), fused to cLUC (enzyme)
